Experimental data from patent US20060234944A1 (OKLAHOMA MEDICAL RESEACH FOUNDATION, published 2006).
Each block holds one binder with its values, some of them ahead of it. Where no end group is shown, it is not given here. resin bead = not defined here; resin = not defined here

Key:
[1] = target: T1, memapsin 1 (auto-catalytically activated promemapsin 1-T1; amino acid residues 58-461 of SEQ ID NO: 4) (Homo sapiens (Human), UniProt Q9Y5Z0 63-466); experiment: ratio of Ki apparent for memapsin 1 to Ki apparent for memapsin 2
T1 construct: also called Mep1; M1
T1 sequence: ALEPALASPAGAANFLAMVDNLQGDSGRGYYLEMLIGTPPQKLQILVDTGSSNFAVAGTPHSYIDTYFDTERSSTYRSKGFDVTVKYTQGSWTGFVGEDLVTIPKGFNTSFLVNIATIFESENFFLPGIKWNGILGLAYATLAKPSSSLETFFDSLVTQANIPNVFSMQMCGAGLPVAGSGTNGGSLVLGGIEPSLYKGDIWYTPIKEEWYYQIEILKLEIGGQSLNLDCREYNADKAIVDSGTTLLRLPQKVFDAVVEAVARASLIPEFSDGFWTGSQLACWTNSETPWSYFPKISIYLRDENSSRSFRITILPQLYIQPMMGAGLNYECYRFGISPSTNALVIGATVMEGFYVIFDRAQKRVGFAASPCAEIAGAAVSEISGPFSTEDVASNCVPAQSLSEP

[2] = target: T2, memapsin 2 (spontaneously activated promemapsin 2-T1; amino acids 43-456 and 45-456 of SEQ ID NO: 8) (human, UniProt P56817 41-454); experiment: enzyme inhibition kinetics
T2 construct: The library probing says only 'recombinant memapsin 2'; also called BACE; ASP2
T2 sequence (P56817 41-454): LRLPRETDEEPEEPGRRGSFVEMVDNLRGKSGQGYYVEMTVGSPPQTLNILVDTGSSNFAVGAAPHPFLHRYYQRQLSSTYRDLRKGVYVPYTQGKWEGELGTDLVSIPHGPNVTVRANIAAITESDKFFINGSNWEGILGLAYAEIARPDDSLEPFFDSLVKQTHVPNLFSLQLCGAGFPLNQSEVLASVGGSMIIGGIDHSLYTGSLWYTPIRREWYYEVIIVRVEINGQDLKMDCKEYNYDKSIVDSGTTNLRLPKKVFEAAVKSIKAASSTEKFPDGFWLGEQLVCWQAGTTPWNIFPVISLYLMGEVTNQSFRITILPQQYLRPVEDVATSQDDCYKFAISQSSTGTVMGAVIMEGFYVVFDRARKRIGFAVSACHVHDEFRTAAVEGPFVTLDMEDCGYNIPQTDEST

[3] = target: T1, memapsin 1 (auto-catalytically …); experiment: inhibition of FS-2 fluorogenic substrate cleavage
[4] = target: T2, memapsin 2 (spontaneously activated …); experiment: inhibition of FS-2 fluorogenic substrate cleavage; paragraph 177 calls the same value Ki
[5] = target: T2, memapsin 2 (spontaneously activated …); experiment: on-bead combinatorial inhibitor library probed with 4 nM memapsin 2, OM99-2 wash, antibody/alkaline phosphatase staining
[6] = target: T1, memapsin 1 (auto-catalytically …); experiment: on-bead combinatorial inhibitor library probed with memapsin 1, antibody/alkaline phosphatase staining
[7] = target: T2, memapsin 2 (spontaneously activated …); experiment: co-crystal structure
[8] = target: T2, memapsin 2 (spontaneously activated …); experiment: on-bead combinatorial inhibitor library, antibody/alkaline phosphatase staining

binding result [6]: binds
B14: library bead inhibitor Gly-Ile-Asp-Leu*Ala-Val-Asn-Phe-Arg-Met-Gly-Gly-resin (peptide)
peptide: GIDLAVNFRMGG-resin
modifications: reading uncertain; also: hydroxyethylene isostere between Leu4 and Ala5, printed as Gly-Ile-Asp-Leu*Ala-Val-Asn-Phe-Arg-Met-Gly-Gly-resin

binding result [6]: binds
B15: library bead inhibitor Gly-Ile-Phe-Leu*Ala-Val-Glu-Phe-Arg-Met-Gly-Gly-resin (peptide)
peptide: GIFLAVEFRMGG-resin
modifications: reading uncertain; also: hydroxyethylene isostere between Leu4 and Ala5, printed as Gly-Ile-Phe-Leu*Ala-Val-Glu-Phe-Arg-Met-Gly-Gly-resin

binding result [6]: binds
B16: library bead inhibitor Gly-Ile-Asn-Leu*Ala-Val-Leu-Phe-Arg-Met-Gly-Gly-resin (peptide)
peptide: GINLAVLFRMGG-resin
modifications: reading uncertain; also: hydroxyethylene isostere between Leu4 and Ala5, printed as Gly-Ile-Asn-Leu*Ala-Val-Leu-Phe-Arg-Met-Gly-Gly-resin

binding result [6]: binds
B17: library bead inhibitor Gly-Leu-Gln-Leu*Ala-Val-Ile-Phe-Arg-Met-Gly-Gly-resin (peptide)
peptide: GLQLAVIFRMGG-resin
modifications: reading uncertain; also: hydroxyethylene isostere between Leu4 and Ala5, printed as Gly-Leu-Gln-Leu*Ala-Val-Ile-Phe-Arg-Met-Gly-Gly-resin

binding result [6]: binds
B18: library bead inhibitor Gly-Leu-Asn-Leu*Ala-Val-Glu-Phe-Arg-Met-Gly-Gly-resin (peptide)
peptide: GLNLAVEFRMGG-resin
modifications: reading uncertain; also: hydroxyethylene isostere between Leu4 and Ala5, printed as Gly-Leu-Asn-Leu*Ala-Val-Glu-Phe-Arg-Met-Gly-Gly-resin

binding result [7]: binds
B19: OM99-2 (EVNL*AAEF) (peptide)
peptide: EVNXXAEF
modifications: hydroxyethylene transition-state isostere (*) in place of the peptide bond between Leu4 (P1) and Ala5 (P1′)
notes: also called EVNLΨAAEF

binding result [8]: no binding (tested: 4 nM memapsin 2)
B20: library bead Neg1: Gly-Phe-Met-Leu*Ala-Asn-Arg-Phe-Arg-Met-Gly-Gly-resin (peptide)
peptide: GFMLANRFRMGG-resin
modifications: reading uncertain; also: hydroxyethylene isostere between Leu4 and Ala5, printed as Gly-Phe-Met-Leu*Ala-Asn-Arg-Phe-Arg-Met-Gly-Gly-resin
notes: Randomly selected negative control bead

binding result [8]: no binding (tested: 4 nM memapsin 2)
B21: library bead Neg2: Gly-Asp-Phe-Leu*Ala-(not printed)-Ser-Phe-Arg-Met-Gly-Gly-resin (peptide)
peptide: GDFLAXSFRMGG-{resin bead}
modifications: not fully specified; X: residue not identified in the source; also: hydroxyethylene isostere between Leu4 and Ala5
notes: as for B20

Continued, binder first:

Binder: ELDLAVEF (also: hydroxyethylene isostere in place of Leu4-Ala5 peptide bond) [OM00-3 (ELDL*AVEF)]
Ki apparent (M1/M2) [1]: 0.59
Ki [2]: 0.3 nM
fold improvement of Ki over OM99-2 [2]: 5.2 fold
fold lower Ki than OM99-2 [2]: ~5 fold
Ki apparent [3]: 0.18 nM
Ki apparent [4]: 0.31 nM

B1: library bead inhibitor Gly-Leu-Asp-Leu*Ala-Val-Glu-Phe-Arg-Met-Gly-Gly-resin (peptide)
peptide: GLDLAVEFRMGG-resin
modifications: reading uncertain; also: hydroxyethylene isostere between Leu4 and Ala5, printed as Gly-Leu-Asp-Leu*Ala-Val-Glu-Phe-Arg-Met-Gly-Gly-resin
binding result [5]: binds

B2: library bead inhibitor Gly-Leu-Asp-Leu*Ala-Val-Gln-Phe-Arg-Met-Gly-Gly-resin (peptide)
peptide: GLDLAVQFRMGG-resin
modifications: reading uncertain; also: hydroxyethylene isostere between Leu4 and Ala5, printed as Gly-Leu-Asp-Leu*Ala-Val-Gln-Phe-Arg-Met-Gly-Gly-resin
binding result [5]: binds

B3: library bead inhibitor Gly-Leu-Glu-Leu*Ala-Val-Glu-Phe-Arg-Met-Gly-Gly-resin (peptide)
peptide: GLELAVEFRMGG-resin
modifications: reading uncertain; also: hydroxyethylene isostere between Leu4 and Ala5, printed as Gly-Leu-Glu-Leu*Ala-Val-Glu-Phe-Arg-Met-Gly-Gly-resin
binding result [5]: binds

B4: library bead inhibitor Gly-Leu-Phe-Leu*Ala-Val-Glu-Phe-Arg-Met-Gly-Gly-resin (peptide)
peptide: GLFLAVEFRMGG-resin
modifications: reading uncertain; also: hydroxyethylene isostere between Leu4 and Ala5, printed as Gly-Leu-Phe-Leu*Ala-Val-Glu-Phe-Arg-Met-Gly-Gly-resin
binding result [5]: binds

B5: library bead inhibitor Gly-Ile-Asp-Leu*Ala-Val-Tyr-Phe-Arg-Met-Gly-Gly-resin (peptide)
peptide: GIDLAVYFRMGG-resin
modifications: reading uncertain; also: hydroxyethylene isostere between Leu4 and Ala5, printed as Gly-Ile-Asp-Leu*Ala-Val-Tyr-Phe-Arg-Met-Gly-Gly-resin
binding result [5]: binds

B6: library bead inhibitor Gly-Leu-Asp-Leu*Ala-Val-Trp-Phe-Arg-Met-Gly-Gly-resin (peptide)
peptide: GLDLAVWFRMGG-resin
modifications: reading uncertain; also: hydroxyethylene isostere between Leu4 and Ala5, printed as Gly-Leu-Asp-Leu*Ala-Val-Trp-Phe-Arg-Met-Gly-Gly-resin
binding result [6]: binds

B7: library bead inhibitor Gly-Leu-Asp-Leu*Ala-Val-Leu-Phe-Arg-Met-Gly-Gly-resin (peptide)
peptide: GLDLAVLFRMGG-resin
modifications: reading uncertain; also: hydroxyethylene isostere between Leu4 and Ala5, printed as Gly-Leu-Asp-Leu*Ala-Val-Leu-Phe-Arg-Met-Gly-Gly-resin
binding result [6]: binds

B8: library bead inhibitor Gly-Leu-Asp-Leu*Ala-Val-Lys-Phe-Arg-Met-Gly-Gly-resin (peptide)
peptide: GLDLAVKFRMGG-resin
modifications: reading uncertain; also: hydroxyethylene isostere between Leu4 and Ala5, printed as Gly-Leu-Asp-Leu*Ala-Val-Lys-Phe-Arg-Met-Gly-Gly-resin
binding result [6]: binds

B9: library bead inhibitor Gly-Leu-Asp-Leu*Ala-Val-Met-Phe-Arg-Met-Gly-Gly-resin (peptide)
peptide: GLDLAVMFRMGG-resin
modifications: reading uncertain; also: hydroxyethylene isostere between Leu4 and Ala5, printed as Gly-Leu-Asp-Leu*Ala-Val-Met-Phe-Arg-Met-Gly-Gly-resin
binding result [6]: binds

B10: library bead inhibitor Gly-Leu-Asp-Leu*Ala-Val-Thr-Phe-Arg-Met-Gly-Gly-resin (peptide)
peptide: GLDLAVTFRMGG-resin
modifications: reading uncertain; also: hydroxyethylene isostere between Leu4 and Ala5, printed as Gly-Leu-Asp-Leu*Ala-Val-Thr-Phe-Arg-Met-Gly-Gly-resin
binding result [6]: binds

B11: library bead inhibitor Gly-Leu-Glu-Leu*Ala-Val-Gln-Phe-Arg-Met-Gly-Gly-resin (peptide)
peptide: GLELAVQFRMGG-resin
modifications: reading uncertain; also: hydroxyethylene isostere between Leu4 and Ala5, printed as Gly-Leu-Glu-Leu*Ala-Val-Gln-Phe-Arg-Met-Gly-Gly-resin
binding result [6]: binds
binding result [5]: binds

B12: library bead inhibitor Gly-Leu-Glu-Leu*Ala-Val-Trp-Phe-Arg-Met-Gly-Gly-resin (peptide)
peptide: GLELAVWFRMGG-resin
modifications: reading uncertain; also: hydroxyethylene isostere between Leu4 and Ala5, printed as Gly-Leu-Glu-Leu*Ala-Val-Trp-Phe-Arg-Met-Gly-Gly-resin
binding result [6]: binds

B13: library bead inhibitor Gly-Ile-Asp-Leu*Ala-Val-Val-Phe-Arg-Met-Gly-Gly-resin (peptide)
peptide: GIDLAVVFRMGG-resin
modifications: reading uncertain; also: hydroxyethylene isostere between Leu4 and Ala5, printed as Gly-Ile-Asp-Leu*Ala-Val-Val-Phe-Arg-Met-Gly-Gly-resin
binding result [6]: binds
